For this assay, the target named is recombinant human PD-L1-mFc fusion protein (human) (UniProt Q9NZQ7). The assay can be described thus: ELISA, human PD-L1-mFc immobilised (1 µg/mL), anti-human kappa-HRP detection.
Sequence of recombinant human PD-L1-mFc fusion protein (human) (Q9NZQ7 19-238): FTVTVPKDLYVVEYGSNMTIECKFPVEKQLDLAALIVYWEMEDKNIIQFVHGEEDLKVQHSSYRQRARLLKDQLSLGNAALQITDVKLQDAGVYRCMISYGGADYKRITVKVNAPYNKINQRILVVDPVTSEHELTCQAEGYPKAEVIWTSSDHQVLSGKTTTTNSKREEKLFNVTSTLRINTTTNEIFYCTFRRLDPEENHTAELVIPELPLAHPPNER

Consider Avelumab/TGFβR (antibody), for which the EC50 was 107 pM.

A word on the EC50: it is the concentration giving half of the maximal effect.

Values taken from US20230078173A1.
